Results taken from the supplement of paper PMC9112550, “Optimization of the antimicrobial peptide Bac7 by deep mutational scanning” (BMC Biology, 2022).

Tested on: Escherichia coli TOP10
Assay: shrunken log2 fold change of peptide-encoding DNA abundance (4.5 h post-induction vs induction); higher = less antimicrobial activity (less host growth inhibition)
Details: time post-induction: 4.5 h; library: site-saturation at positions 5, 18, 19, 20
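Also: peptides expressed intracellularly from a pBAD plasmid library in pooled LB shake-flask culture, induced with 0.3% L-arabinose, DNA abundance read by NGS, three biological replicates, DESeq2 with apeglm shrinkage.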

Sequence | shrunken log2 fold change
RRIRYRPPRLPRPRPRPQCSPRP | -0.73
RRIRFRPPRLPRPRPRPIQKPRP | 0.00595
RRIRKRPPRLPRPRPRPCIYPRP | -0.198
RRIRSRPPRLPRPRPRPGCKPRP | -0.00169
RRIRIRPPRLPRPRPRPSCLPRP | -0.998
RRIRFRPPRLPRPRPRPMACPRP | -0.00146
RRIRHRPPRLPRPRPRPKSIPRP | -0.136
RRIRPRPPRLPRPRPRPGMPPRP | -0.074
RRIRMRPPRLPRPRPRPRCLPRP | -0.0778
RRIRYRPPRLPRPRPRPGYHPRP | -0.00992
RRIRARPPRLPRPRPRPSTTPRP | 0.363
RRIRARPPRLPRPRPRPSAQPRP | 0.96
RRIRYRPPRLPRPRPRPPNIPRP | -0.659
RRIRPRPPRLPRPRPRPYIHPRP | -0.946
RRIRSRPPRLPRPRPRPDHPPRP | -0.0828
RRIRSRPPRLPRPRPRPNMGPRP | -0.351
RRIRVRPPRLPRPRPRPSNHPRP | -0.636
RRIRDRPPRLPRPRPRPMKHPRP | -0.245
RRIRKRPPRLPRPRPRPHAFPRP | 0.106
RRIRGRPPRLPRPRPRPWFVPRP | -0.314
RRIRSRPPRLPRPRPRPTWEPRP | 0.187
RRIRTRPPRLPRPRPRPYQSPRP | -0.465

Sequence | shrunken log2 fold change
RRIRTRPPRLPRPRPRPFGEPRP | -0.101
RRIRTRPPRLPRPRPRPDHNPRP | -0.471
RRIRGRPPRLPRPRPRPFYEPRP | 0.0153
RRIRWRPPRLPRPRPRPVMDPRP | -0.385
RRIRERPPRLPRPRPRPCTPPRP | -0.239
RRIRWRPPRLPRPRPRPKDCPRP | -0.0724
RRIRPRPPRLPRPRPRPWYGPRP | -0.429
RRIRTRPPRLPRPRPRPIAWPRP | -0.104
RRIRGRPPRLPRPRPRPILWPRP | 0.376
RRIRMRPPRLPRPRPRPEFLPRP | 0.113
RRIRIRPPRLPRPRPRPFDQPRP | -0.385
RRIRWRPPRLPRPRPRPMCHPRP | -0.115
RRIRYRPPRLPRPRPRPWPKPRP | 0.203
RRIRFRPPRLPRPRPRPCSWPRP | -0.349
RRIRMRPPRLPRPRPRPYGNPRP | 0.081
RRIRGRPPRLPRPRPRPAMWPRP | 1.02
RRIRPRPPRLPRPRPRPSFGPRP | -0.156
RRIRKRPPRLPRPRPRPPWFPRP | 0.309
RRIRGRPPRLPRPRPRPKPCPRP | 0.422
RRIRCRPPRLPRPRPRPSKYPRP | -0.635
RRIRWRPPRLPRPRPRPAWSPRP | 0.265
RRIRKRPPRLPRPRPRPWLQPRP | -0.0256

Sequence | shrunken log2 fold change
RRIRDRPPRLPRPRPRPGFRPRP | 0.248
RRIRERPPRLPRPRPRPMDTPRP | -0.501
RRIRRRPPRLPRPRPRPEAMPRP | -0.0491
RRIRHRPPRLPRPRPRPDLEPRP | -0.00264
RRIRLRPPRLPRPRPRPNEIPRP | 0.0349
RRIRERPPRLPRPRPRPSTRPRP | -0.232
RRIRGRPPRLPRPRPRPEPVPRP | 0.806
RRIRSRPPRLPRPRPRPFTNPRP | -0.0617
RRIRGRPPRLPRPRPRPEIAPRP | 1.86
RRIRKRPPRLPRPRPRPEVNPRP | 3.37
RRIRTRPPRLPRPRPRPCCTPRP | -0.0782
RRIRERPPRLPRPRPRPDKKPRP | 0.0282
RRIRKRPPRLPRPRPRPTMIPRP | -0.0569
RRIRSRPPRLPRPRPRPIIPPRP | -0.188
RRIRDRPPRLPRPRPRPLTCPRP | 0.254
RRIRKRPPRLPRPRPRPHKFPRP | 0.0822
RRIRWRPPRLPRPRPRPKCHPRP | 0.206
RRIRVRPPRLPRPRPRPEIFPRP | 0.00503
RRIRHRPPRLPRPRPRPIRWPRP | 0.171
RRIRRRPPRLPRPRPRPENAPRP | 0.115
RRIRCRPPRLPRPRPRPYKGPRP | -0.153
RRIRCRPPRLPRPRPRPWKDPRP | 0.00196

Sequence | shrunken log2 fold change
RRIRRRPPRLPRPRPRPTALPRP | 0.554
RRIRKRPPRLPRPRPRPLAQPRP | 0.801
RRIRARPPRLPRPRPRPPPLPRP | 1.84
RRIRKRPPRLPRPRPRPQVYPRP | -0.0614
RRIRDRPPRLPRPRPRPMVIPRP | 0.0392
RRIRNRPPRLPRPRPRPFGPPRP | -0.406
RRIRCRPPRLPRPRPRPDIWPRP | 0.116
RRIRFRPPRLPRPRPRPMKPPRP | -0.0229
RRIRERPPRLPRPRPRPLVHPRP | -0.158
RRIRMRPPRLPRPRPRPCPIPRP | -0.404
RRIRNRPPRLPRPRPRPLSCPRP | -0.238
RRIRMRPPRLPRPRPRPGHQPRP | 0.568
RRIRPRPPRLPRPRPRPDSSPRP | -0.000765
RRIRKRPPRLPRPRPRPAPEPRP | 1.26
RRIRARPPRLPRPRPRPELNPRP | 0.746
RRIRMRPPRLPRPRPRPKYQPRP | 0.0592
RRIRIRPPRLPRPRPRPAYLPRP | -0.376
RRIRVRPPRLPRPRPRPDWRPRP | 0.141
RRIRTRPPRLPRPRPRPSIPPRP | -0.356
RRIRYRPPRLPRPRPRPHLCPRP | -0.0639
RRIRPRPPRLPRPRPRPWIMPRP | -0.236
RRIRARPPRLPRPRPRPYNKPRP | -0.731

Sequence | shrunken log2 fold change
RRIRKRPPRLPRPRPRPKRSPRP | 0.667
RRIRARPPRLPRPRPRPHWIPRP | -0.277
RRIRFRPPRLPRPRPRPDFRPRP | 0.00564
RRIRCRPPRLPRPRPRPFGDPRP | -0.00748
RRIRTRPPRLPRPRPRPMIEPRP | -0.244
RRIRYRPPRLPRPRPRPVFEPRP | 0.0623
RRIRFRPPRLPRPRPRPQILPRP | -0.713
RRIRGRPPRLPRPRPRPHHAPRP | 0.254
RRIRRRPPRLPRPRPRPVKMPRP | 0.101
RRIRARPPRLPRPRPRPIQCPRP | 0.00559
RRIRYRPPRLPRPRPRPVSKPRP | -0.069
RRIRVRPPRLPRPRPRPEQLPRP | 0.185
RRIRHRPPRLPRPRPRPGCKPRP | 0.229
RRIRIRPPRLPRPRPRPMAQPRP | 0.00812
RRIRERPPRLPRPRPRPNCDPRP | -0.261
RRIRDRPPRLPRPRPRPQHGPRP | 0.587
RRIRFRPPRLPRPRPRPHWCPRP | -0.262
RRIRFRPPRLPRPRPRPRSWPRP | 0.135
RRIRKRPPRLPRPRPRPPWKPRP | 0.173
RRIRLRPPRLPRPRPRPMRRPRP | 0.412
RRIRLRPPRLPRPRPRPTRRPRP | 0.298
